One block for each binder: values may come before it.
Assays:
[1] = target: T1, Recombinant mouse sclerostin (mouse, UniProt Q99P68 24-211); assay: cell-based or functional assay
T1 sequence: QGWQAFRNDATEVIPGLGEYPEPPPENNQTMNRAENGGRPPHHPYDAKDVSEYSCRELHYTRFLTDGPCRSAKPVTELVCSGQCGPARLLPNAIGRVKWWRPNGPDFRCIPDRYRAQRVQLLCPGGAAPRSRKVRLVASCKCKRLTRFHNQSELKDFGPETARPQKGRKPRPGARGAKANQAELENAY

Mouse Fc gamma RIIB = target: T2, Mouse Fc gamma RIIB (mouse, UniProt P08101 30-210, limits assumed); assay: SPR (Biacore T200), pH 7.4, 25 degrees C; mouse Fc gamma RIIB captured by anti-Histidine antibody; antibody injected at 100 nM alone or as 1:1 immune complex with human sclerostin
T2 sequence (looked up): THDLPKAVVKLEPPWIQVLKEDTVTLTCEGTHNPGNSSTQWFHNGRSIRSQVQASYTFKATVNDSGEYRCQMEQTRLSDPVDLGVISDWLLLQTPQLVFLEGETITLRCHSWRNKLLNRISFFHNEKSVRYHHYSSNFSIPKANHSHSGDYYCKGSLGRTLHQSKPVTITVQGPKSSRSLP
Procedure: The binding of anti-sclerostin antibodies/sclerostin immune complex towards mouse Fc gamma RIIB at pH 7.4 were determined at 25 degrees C. using Biacore T200 instrument (GE Healthcare). All antibodies and mouse Fc gamma RIIB were prepared in ACES pH 7.4 containing 20 mM ACES, 250 mM NaCl, 1.2 mM CaCl₂, 0.05% Tween 20, 1 mg/ml BSA, 1 mg/ml carboxymethyl dextran (CMD), 0.005% NaN₃. Anti-Histidine antibody (GE Healthcare) was immobilized onto all flow cells of a CM4 sensor chip using amine coupling kit (GE Healthcare). Mouse Fc gamma RIIB was captured on flow cell 2 by anti-Histidine antibody with flow cell 1 as reference flow cell. Mouse Fc gamma RIIB capture levels were aimed at 400 resonance unit (RU). All antibodies were injected at 100 nM over all flow cells. Immune complexes were prepared by mixing 1:1 molar ratio of antibody and human sclerostin and incubated at room temperature for one hour. Sensor surface was regenerated each cycle with 10 mM Glycine-HCl, pH1.5.

[2] = target: T3, Recombinant human sclerostin (human, UniProt Q9BQB4 24-213); assay: SPR; captured antibody (SG1/SK1 constant regions), recombinant human SOST as analyte; response normalised by the capture level of the antibody [panel mabAL]
T3 construct: Whole entry as named; Secreted recombinant protein purified from FreeStyle293-F conditioned medium; also called human-SOST; Human SOST
T3 sequence: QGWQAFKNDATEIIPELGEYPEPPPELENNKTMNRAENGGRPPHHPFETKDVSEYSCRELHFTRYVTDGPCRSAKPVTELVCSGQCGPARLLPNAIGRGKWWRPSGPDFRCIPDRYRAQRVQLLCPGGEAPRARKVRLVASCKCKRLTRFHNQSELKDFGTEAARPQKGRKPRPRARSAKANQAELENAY

[3] = target: T3, Recombinant human sclerostin; assay: SPR (Biacore), dissociation at pH 7.4
Procedure: (§1) The affinity of anti-sclerostin variants binding to human, cynomolgus monkey (cyno), rat, or mouse sclerostin at pH 7.4 and pH 5.8 were determined at 37 degrees C. using Biacore T200 instrument (GE Healthcare). Anti-human Fc (GE Healthcare) was immobilized onto all flow cells of a CM4 sensor chip using amine coupling kit (GE Healthcare). All antibodies and analytes were prepared in ACES pH7.4 or pH 5.8 buffer containing 20 mM ACES, 150 mM NaCl, 1.2 mM CaCl₂, 0.05% Tween 20, 0.005% NaN₃. Each antibody was captured onto the sensor surface by anti-human Fc. […] Sensor surface was regenerated each cycle with 3M MgCl₂.

[4] = target: T1, Recombinant mouse sclerostin; assay: SPR (Biacore T200), 37 C, dissociation at pH 5.8 of complex formed at pH 7.4
Procedure: as §1
(§2) The pH dependent interaction assessment was determined by a modified Biacore assay. Briefly, an additional dissociation phase at pH5.8 was integrated into the Biacore assay immediately after dissociation phase at pH7.4. This is to assess the pH-dependent dissociation between antibody and antigen from the complexes formed at pH7.4. The dissociation rate at pH5.8 buffer was determined by processing and fitting data using Scrubber 2.0 (BioLogic Software) curve fitting software.

[5] = target: T1, Recombinant mouse sclerostin; assay: SPR (Biacore T200), 37 C, antibody captured by anti-human Fc, sclerostin as analyte, pH 5.8
Procedure: as §1

[6] = target: T3, Recombinant human sclerostin; assay: SPR; captured antibody (SG1/SK1 constant regions), recombinant human SOST as analyte; response normalised by the capture level of the antibody [panel mabBL]
[7] = target: T3, Recombinant human sclerostin; assay: SPR (Biacore T200), 37 C, dissociation at pH 5.8 of complex formed at pH 7.4
Procedure: as §1, §2

[8] = target: T4, Recombinant cynomolgus monkey sclerostin (cynomolgus monkey, UniProt Q9BG78 24-213 (Chlorocebus aethiops entry)); assay: as above
T4 construct: Whole entry as named; expressed and purified as the human counterpart; also called cyno-SOST; cyno SOST
T4 chain: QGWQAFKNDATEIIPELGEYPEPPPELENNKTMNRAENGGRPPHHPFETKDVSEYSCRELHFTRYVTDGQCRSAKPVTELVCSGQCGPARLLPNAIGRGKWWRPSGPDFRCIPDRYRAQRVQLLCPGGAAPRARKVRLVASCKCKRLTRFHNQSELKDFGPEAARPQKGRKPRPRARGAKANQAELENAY
Procedure: as §1, §2

[9] = target: T4, Recombinant cynomolgus monkey sclerostin; assay: SPR (Biacore T200), 37 C, antibody captured by anti-human Fc, sclerostin as analyte, pH 5.8
Procedure: as §1

[10] = target: T3, Recombinant human sclerostin; assay: SPR (Biacore T200), 37 C, antibody captured by anti-human Fc, sclerostin as analyte, pH 7.4
Procedure: as §1

[11] = target: T1, Recombinant mouse sclerostin; assay: SPR (Biacore T200), 37 C, antibody captured by anti-human Fc, sclerostin as analyte, pH 5.8; pH 5.8
Procedure: as §1

[12] = target: T1, Recombinant mouse sclerostin; assay: SPR (Biacore T200), 37 C, antibody captured by anti-human Fc, sclerostin as analyte, pH 7.4; pH 7.4
Procedure: as §1

[13] = target: T5, Recombinant rat sclerostin (rat, UniProt Q99P67 29-213); assay: SPR (Biacore T200), 37 C, dissociation at pH 5.8 of complex formed at pH 7.4
T5 construct: Whole entry as named; also called rat-SOST
T5 sequence: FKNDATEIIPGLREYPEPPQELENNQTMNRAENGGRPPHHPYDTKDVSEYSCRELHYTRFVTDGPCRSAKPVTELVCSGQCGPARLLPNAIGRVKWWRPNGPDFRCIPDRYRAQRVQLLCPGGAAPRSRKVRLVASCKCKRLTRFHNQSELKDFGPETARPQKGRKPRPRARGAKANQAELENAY
Procedure: as §1, §2

[14] = target: T5, Recombinant rat sclerostin; assay: SPR (Biacore T200), 37 C, antibody captured by anti-human Fc, sclerostin as analyte, pH 5.8
Procedure: as §1

[15] = target: T3, Recombinant human sclerostin; assay: as above
Procedure: as §1

[16] = target: T4, Recombinant cynomolgus monkey sclerostin; assay: SPR (Biacore T200), 37 C, antibody captured by anti-human Fc, sclerostin as analyte, pH 7.4
Procedure: as §1

[17] = target: T4, Recombinant cynomolgus monkey sclerostin; assay: SPR (Biacore), dissociation at pH 7.4
Procedure: as §1

B3: bsH638/abL152 (antibody, V domains shown)
VH: QVQLVQSGAEVKKPGASVKVSCKVSGYTLTHTFMHWVRQAPGKGLEWMGWSDPEIGDHEYASKFQGRVTMTEDTSTDTAYMELSSLRSEDTAVYYCATGDTTYKFDYWGQGTLVTVSS
VL: DIQMTQSPSSLSASVGDRVTITCRASEGIHDALAWYQQKPGKAPKLLIYWASTLESGVPSRFSGSGSGTDFTLTISSLQPEDFATYYCQQGDTLPYTFGGGTKVEIK
notes: Homodimeric antibody
- koff [3]: 0.0093 s⁻¹

B6: mabA (antibody, V domains shown)
VH: EVQLVQSGAEVKKPGASVKVSCKASGYTFTDYNMHWVRQAPGQGLEWMGEINPNSGGAGYNQKFKGRVTMTTDTSTSTAYMELRSLRSDDTAVYYCARLGYDDIYDDWYFDVWGQGTTVTVSS
VL: DIQMTQSPSSLSASVGDRVTITCRASQDISNYLNWYQQKPGKAPKLLIYYTSRLLSGVPSRFSGSGSGTDFTLTISSLQPEDFATYYCQQGDTLPYTFGGGTKVEIK
- koff [7]: 0.00631 s⁻¹
- koff [8]: 0.00697 s⁻¹
- Kd [9]: 1.4 nM
- Kd [10]: 0.08 nM
- Kd [11]: < 0.01 nM
- Kd [12]: < 0.01 nM

B8: mabA_NpH2 (antibody, V domains shown)
VH: EVQLVQSGAEVKKPGASVKVSCKASGYTFTDYNMHWVRQAPGQGLEWMGEINPNSGGAGYNQKFKGRVTMTTDTSTSTAYMELRSLRSDDTAVYYCARLGYDDIYDDWYFDVWGQGTTVTVSS
VL: DIQMTQSPSSLSASVGDRVTITCRASQDISNYLNWYQQKPGKAPKLLIYHTSRLLSGVPSRFSGSGSGTDFTLTISSLQPEDFATYYCQQGDTLPYTFGGGTKVEIK
- koff [7]: 0.0023 s⁻¹
- koff [8]: 0.0018 s⁻¹
- Kd [15]: 0.69 nM
- Kd [16]: 0.28 nM

B9: amH852/abL152 (antibody, V domains shown)
VH: EVQLVQSGAEVKKPGASVKVSCKASGYTFTDYNMHWVRQAPGKGLEWMGEIMPHSGRYGLKQKFKGRVTMTTDTSTSTAYMELRSLRSDDTAVYYCARLEYSEIYDDWYFDVWGQGTTVTVSS
VL: DIQMTQSPSSLSASVGDRVTITCRASEGIHDALAWYQQKPGKAPKLLIYWASTLESGVPSRFSGSGSGTDFTLTISSLQPEDFATYYCQQGDTLPYTFGGGTKVEIK
notes: Homodimeric antibody
- koff [17]: 0.0019 s⁻¹

Further lines, results first:

- IC50 (read off the curve); Wnt1-induced TCF/LEF luciferase reporter in HEK293T cells, % Inhibition of mouse SOST [1]: ~7 µg/mL
- binding result (Mouse Fc gamma RIIB): binds
B1: mabB//mabA-BS01 (bispecific antibody, human IgG1, kappa)
heavy 1: QVQLVQSGAEVKKPGASVKVSCKVSGFPIKDTFQHWVRQAPGKGLEWMGWSDPEIGDTEYASKFQGRVTMTEDTSTDTAYMELSSLRSEDTAVYYCATGDTTYKFDFWGQGTTVTVSSASTKGPSVFPLAPSSRSTSESTAALGCLVKDYFPEPVTVSWNSGALTSGVHTFPAVLQSSGLYSLSSVVTVPSSSLGTKTYTCNVDHKPSNTKVDKRVEPKSCDKTHTCPPCPAPELLGGPSVFLFPPKPKDTLMISRTPEVTCVVVDVSQEDPEVQFNWYVDGVEVHNAKTKPREEQFNSTYRVVSVLTVLHQDWLNGKEYKCKVSNKGLPSSIEKTISKAKGQPREPQVYTLPPSREEMTKNQVSLTCLVKGFYPSDIAVEWESNGQPENNYKTTPPYLDSDGSFFLYSKLTVDKSRWQQGNVFSCSVMHEALHNHYTQESLSLSP
light 1: DIQMTQSPSSLSASVGDRVTITCKASQDVHTAVAWYQQKPGKAPKLLIYWASTRWTGVPSRFSGSGSGTDFTLTISSLQPEDFATYYCQQYSDYPWTFGGGTKVEIKRTVAAPSVFIFPPSDEQLKSGTASVVCLLNNFYPREAKVQWKVDNALQSGNSQESVTEQDSKDSTYSLSSTLTLSKADYEKHKVYACEVTHQGLSSPVTKSFNRGEC
heavy 2: EVQLVQSGAEVKKPGASVKVSCKASGYTFTDYNMHWVRQAPGQGLEWMGEINPNSGGAGYNQKFKGRVTMTTDTSTSTAYMELRSLRSDDTAVYYCARLGYDDIYDDWYFDVWGQGTTVTVSSASTKGPSVFPLAPSSRSTSESTAALGCLVKDYFPEPVTVSWNSGALTSGVHTFPAVLQSSGLYSLSSVVTVPSSSLGTKTYTCNVDHKPSNTKVDKRVEPKSCDKTHTCPPCPAPELLGGPSVFLFPPKPKDTLMISRTPEVTCVVVDVSQEDPEVQFNWYVDGVEVHNAKTKPREEQFNSTYRVVSVLTVLHQDWLNGKEYKCKVSNKGLPSSIEKTISKAKGQPREPQVYTLPPSRKEMTKNQVSLTCLVKGFYPSDIAVEWESNGQPENNYKTTPPYLDSDGSFFLYSKLTVDKSRWQQGNVFSCSVMHEALHNHYTQKSLSLSP
light 2: not shown

- binding result [2]: no binding
B2: mabB heavy chain combined with the mabA light chain (mabAL) (antibody, human IgG1, kappa, V domains shown)
VH: QVQLVQSGAEVKKPGASVKVSCKVSGFPIKDTFQHWVRQAPGKGLEWMGWSDPEIGDTEYASKFQGRVTMTEDTSTDTAYMELSSLRSEDTAVYYCATGDTTYKFDFWGQGTTVTVSS
VL: DIQMTQSPSSLSASVGDRVTITCRASQDISNYLNWYQQKPGKAPKLLIYYTSRLLSGVPSRFSGSGSGTDFTLTISSLQPEDFATYYCQQGDTLPYTFGGGTKVEIKR
notes: also called mabAL with the mabB heavy chain; Light chain A with the mabB heavy chain

- koff [4]: 0.00265 s⁻¹
- Kd [5]: 0.26 nM
B4: mabB (antibody, V domains shown)
VH: QVQLVQSGAEVKKPGASVKVSCKVSGFPIKDTFQHWVRQAPGKGLEWMGWSDPEIGDTEYASKFQGRVTMTEDTSTDTAYMELSSLRSEDTAVYYCATGDTTYKFDFWGQGTTVTVSS
VL: DIQMTQSPSSLSASVGDRVTITCKASQDVHTAVAWYQQKPGKAPKLLIYWASTRWTGVPSRFSGSGSGTDFTLTISSLQPEDFATYYCQQYSDYPWTFGGGTKVEIK

- binding result [6]: no binding
B5: mabA heavy chain combined with the mabB light chain (mabBL) (antibody, human IgG1, kappa, V domains shown)
VH: EVQLVQSGAEVKKPGASVKVSCKASGYTFTDYNMHWVRQAPGQGLEWMGEINPNSGGAGYNQKFKGRVTMTTDTSTSTAYMELRSLRSDDTAVYYCARLGYDDIYDDWYFDVWGQGTTVTVSS
VL: DIQMTQSPSSLSASVGDRVTITCKASQDVHTAVAWYQQKPGKAPKLLIYWASTRWTGVPSRFSGSGSGTDFTLTISSLQPEDFATYYCQQYSDYPWTFGGGTKVEIKR
notes: also called mabBL with the mabA heavy chain; Light chain B with the mabA heavy chain

- koff [13]: 0.0059 s⁻¹
- koff [4]: 0.0107 s⁻¹
- Kd [14]: 4.2 nM
B7: mabA_pH1 (antibody, V domains shown)
VH: EVQLVQSGAEVKKPGASVKVSCKASGYTFTDYNMHWVRQAPGQGLEWMGEINPNSGHAGYNQKFKGRVTMTTDTSTSTAYMELRSLRSDDTAVYYCARLHYDDIYDDWYFDVWGQGTTVTVSS
VL: DIQMTQSPSSLSASVGDRVTITCRASHDISNYLNWYQQKPGKAPKLLIYYTSRLLSGVPSRFSGSGSGTDFTLTISSLQPEDFATYYCQQGDTLPYTFGGGTKVEIK

Reference: patent US20190352387A1 (Chugai, published 2019)
